Nine molecules from patent US20040253243A1, “Aptamer therapeutics useful in ocular pharmacotherapy” (priority 2003, published 2004) can be followed below.

Broadly, the Kd is the free concentration of one partner at which half of the binding sites on the other are occupied at equilibrium, for simple one-to-one binding. Read a high Kd as weaker binding. The term IC50 denotes the midpoint of a concentration-inhibition curve. Low values mean inhibition by little substance, high ones a need for much substance.

The chains are these.
T1: TGFβ2 (Homo sapiens, UniProt P61812)
T1 construct: For bio-chemical characterization of these aptamers, two forms of mature TGFβ2 were generated, native and N-terminal his-tagged versions, in E. coli
T1 sequence (P61812 303-414 limits assumed): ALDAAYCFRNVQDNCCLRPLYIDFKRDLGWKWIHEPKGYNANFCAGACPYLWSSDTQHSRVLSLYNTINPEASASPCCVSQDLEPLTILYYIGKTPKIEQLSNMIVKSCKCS

B1: GGGAGGACGAUGCGGACAGAGUAUUAUAGAGUAUGUAUAGCUAUACUGUCCAGACGACUCGCCCGA (nucleic acid)
chain: rGrGrGrArGrGrAfCrGrAfUrGfCrGrGrAfCrArGrArGfUrAfUfUrAfUrArGrArGfUrAfUrGfUrAfUrArGfCfUrAfUrAfCfUrGfUfCfCrArGrAfCrGrAfCfUfCrGfCfCfCrGrA
modifications: aptamer
B2: GGGAGGACGAUGCGGGGAGGUUAUUACAGAGUCUGUAUAGCUGUACUCCCAGACGACUCGCCCGA (nucleic acid)
chain: rGrGrGrArGrGrAfCrGrAfUrGfCrGrGrGrGrArGrGfUfUrAfUfUrAfCrArGrArGfUfCfUrGfUrAfUrArGfCfUrGfUrAfCfUfCfCfCrArGrAfCrGrAfCfUfCrGfCfCfCrGrA
B3: GGGAGGACGAUGCGGACAGAGUAUUAUAGAGUAUGUAUAGCUAUACUGUCAGACGACUCGCCCGA (nucleic acid)
chain: rGrGrGrArGrGrAfCrGrAfUrGfCrGrGrAfCrArGrArGfUrAfUfUrAfUrArGrArGfUrAfUrGfUrAfUrArGfCfUrAfUrAfCfUrGfUfCrArGrAfCrGrAfCfUfCrGfCfCfCrGrA
modifications: aptamer
B4: GGGAGGACGAUGCGGGACAGAGUAUUAUAGAGUAUGUAUAGCUAUACUGUCAGACGACUCGCCCGA (nucleic acid)
chain: rGrGrGrArGrGrAfCrGrAfUrGfCrGrGrGrAfCrArGrArGfUrAfUfUrAfUrArGrArGfUrAfUrGfUrAfUrArGfCfUrAfUrAfCfUrGfUfCrArGrAfCrGrAfCfUfCrGfCfCfCrGrA
modifications: aptamer
B5: GGGAGGACGAUGCGGAGGGAUUAUUAUAGAGUCUGUAUAGCUAUACCCUCAGACGACUCGCCCGA (nucleic acid)
chain: rGrGrGrArGrGrAfCrGrAfUrGfCrGrGrArGrGrGrAfUfUrAfUfUrAfUrArGrArGfUfCfUrGfUrAfUrArGfCfUrAfUrAfCfCfCfUfCrArGrAfCrGrAfCfUfCrGfCfCfCrGrA
modifications: aptamer
B6: GGGAGGACGAUGCGGUGAGAGUAUUAUAGAGUCUGUAUAGCUAUACUCGCCAGACGACUCGCCCGA (nucleic acid)
chain: rGrGrGrArGrGrAfCrGrAfUrGfCrGrGfUrGrArGrArGfUrAfUfUrAfUrArGrArGfUfCfUrGfUrAfUrArGfCfUrAfUrAfCfUfCrGfCfCrArGrAfCrGrAfCfUfCrGfCfCfCrGrA
modifications: aptamer
B7: GGGAGGACGAUGCGGUGAGAGUAUUAUAGAGUCUGUAUAGCUAUACCACCAGACGACUCGCCCGA (nucleic acid)
chain: rGrGrGrArGrGrAfCrGrAfUrGfCrGrGfUrGrArGrArGfUrAfUfUrAfUrArGrArGfUfCfUrGfUrAfUrArGfCfUrAfUrAfCfCrAfCfCrArGrAfCrGrAfCfUfCrGfCfCfCrGrA
modifications: aptamer
B8: GGGAGGACGAUGCGGAUAGAGUAUUAUAGAGUAUGUAUAGCUAUACUAUCAGACGACUCGCCCGA (nucleic acid)
chain: rGrGrGrArGrGrAfCrGrAfUrGfCrGrGrAfUrArGrArGfUrAfUfUrAfUrArGrArGfUrAfUrGfUrAfUrArGfCfUrAfUrAfCfUrAfUfCrArGrAfCrGrAfCfUfCrGfCfCfCrGrA
modifications: aptamer
B9: GGGAGGACGAUGCGGUGUGAGUAUUAUAGAGUCUGUAUAGCUAUACCACCAGACGACUCGCCCGA (nucleic acid)
chain: rGrGrGrArGrGrAfCrGrAfUrGfCrGrGfUrGfUrGrArGfUrAfUfUrAfUrArGrArGfUfCfUrGfUrAfUrArGfCfUrAfUrAfCfCrAfCfCrArGrAfCrGrAfCfUfCrGfCfCfCrGrA
modifications: aptamer

Strand notation (5' to 3'): a small letter for the sugar, then the base; units joined by * are phosphorothioate-linked, units joined directly phosphodiester-linked; [ ] holds rarer units or linkages, { } end groups; capitals alone tell only the bases. r = 2'-OH (RNA); f = 2'-fluoro

One series has as its target T1, TGFβ2. Briefly: Dot blot binding of doped reselection aptamers to TGFβ2. The settings on record: CW128_103. The protocol: TGFβ2 was serially diluted in DPBS containing 0.2 mg/ml BSA and 0.2 mg/ml tRNA. ^32P-labeled RNA (<20 pM) were incubated with TGFβ2 at room temperature for 30 min. Samples were pipetted with a multichannel pippetor onto a multiwell manifold holding layers of pre-wetted 0.45 micron nitrocellulose, hybond membrane, 3MM filter paper (the order is from top to bottom), aspirated, and washed 3× with DPBS (containing tRNA). All three filters were air dried, exposed to phosphorimager plate, analyzed by ImageQuant.
B1 yielded a Kd of 0.53 nM.
B2 displayed a Kd of 0.75 nM.

The target of the next series is T1, TGFβ2. Briefly: Binding data as performed in MLEC inhibition assay CW115-95, 117, 129. The class given is cell-based. The settings on record: full-length aptamer sequences; experiment 129. The protocol:
MLEC Assay. The mink lung epithelial cell proliferation assay is performed over two days. On day 1:1) media is aspirated off from Mink Lung Epithelial Cells (MLEC); 2) the MLEC are washed with 10 ml 1×PBS; 3) 3 ml Trypsin is added and Trypsinize for 3 min at 37° C.; 4) quench with 10 ml 0.5% FBS media; 5) spin at 1000 rpm for 3.30 min; 6) aspirate off supernatant; 7) resuspend pellet in 10 ml 0.5% FBS media; 8) Count 10 μl cell suspension; 9) adjust cell density to 80,000 cells/ml; 10) add 50 μl of cells/well to black bottomed 96-well plates (4000 cells/well); pipet up and down during plating process to avoid settling of cells and uneven plating; 11) incubate cells at 37° C. in 5% CO2 for 4 hrs to allow adherence of cells; 12) add 25 μl of aptamer (or media, or other test reagent, such as for example, an antibody), preferably the outer wells are not used for treated cells; 13) add 25 μl of TGFβ2 (typically 25 pg/ml); and 14) incubate cells at 37° C. in 5% CO2 overnight.
On day 2:1) mix 20 μl BrdU with 2 ml 0.5% FBS media; 2) add 10 μl of BrdU mixture/well; 3) incubate cells at 37° C. in 5% CO2 for 3 hrs; 4) remove media and blot plates dry on paper towels; 5) add 200 μl/well FixDenat solution and incubate for 30 min at room temperature (RT); 6) remove FixDenat solution and blot plates dry on paper towels; 7) add 100 μl /well anti-BrdU POD solution and incubate for 90 min at RT; 8) remove anti-BrdU POD solution and blot plates dry on paper towels; 9) wash plates 3× with […] washing solution with 5 min RT incubations and blot plates dry on paper towels; 10) add 100 μl /well substrate solution and incubate for 3 min at RT in dark; and 11) read plates using PSP Luciferace 1 program on TopCount (Packard Bioscience Co., Downers Grove, Ill.).
B1 displayed an IC50 of 5.2 nM.
Consider B3, for which the IC50 amounted to 14.5 nM.
The molecule B4 showed an IC50 of 12.1 nM.
In the case of B5, the IC50 was 5.3 nM.
In the case of B6, the IC50 turned out to be 6.5 nM.
In turn, B7 gave a 50% inhibitory concentration (IC50) of 8 nM.
On the same count and under the same terms, the value for B8 was 17.9 nM; that for B9 was 7.4 nM.
